The source of these data is PMC12741062 (Frontiers in Immunology, 2025).

To fix the notation:
B1: TAT-Nb91 recombinant protein (VHH)
VHH: LQESGGGSVQAGGSLKLSCAASGSTFNSCGMGWYRQVPGKERELVSTISDSDTTTYADAVKGRFSISQDKTKNTLYLQMNSLKTEDTARYYCAARSIFAERVCSIHFDSWGQGTQVTVSS
notes: TAT cell-penetrating peptide from HIV; Linker; VHH of Nb91, as the VHH of m11; About 19 kDa; The primers carry HindIII and XhoI sites; also called TAT-Nb91-His; not shown: His6, C-terminal, kept
B2: Nb72 (VHH)
VHH: LQKAGGVSEQAGASLRLSCVLSARIYGRCCLLWFRQDPGNREGISSINTDGKTSYTDSGKDRFTVSQYTDYNILQLQMNSLKPDDTAVYYCGATERVGDICTEYKYRGQGTQVTVSS
B3: Nb67 (VHH)
VHH: LQESGGGLVQAGGSLRLSCTASGLNVDNYEMGWFRQAPGKEREGIAQISCSGAMTYYADSVKGRFTISRDNAKKTLYLQMNSLTPEDTAMYYCAAQTRVCGLWTSRGPEMESDFDAWGQGTQVTVSS
B4: Nb85 (VHH)
VHH: LQESGGGSVQAGGSLRLSCVSSEYSGTIFAMGWFRQAPGKEREGVAVVDSAITKHYADSVKGRFTISRDNAKNRLDLQMDSLKPEDTGMYYCARSRGYLAGASATLRPTNYDDWGQGTQVTVSS
B5: Nb70 (VHH)
VHH: LQESGGGSVQAGGSLRLSCTASTFTYISLYMGWFRQAPGKEREGVAGIYAGGGDTYYADSVKGRFTISQDDAKRTVYLQMNSLKPEDTAMYYCAADRGPSRWDFRSWGQGTQVTVSS
B6: Nb27 (VHH)
VHH: LQESGGGSVQAGGSLKLSCAASGPIFRRCGMGWYRQAPGKEREVVSGINDAGTASYADSVKGRFTISQDNAKNMLYLQMNSLKTEDTAVYYCAGRKYYDVGNYCSVDLYWGQGTQVTVSS

One experiment concerns the target T1, BVDV NS4B-His recombinant protein (Bovine viral diarrhea virus 1, GenBank …, UniProt A0A068L3P0).
T1 construct: also called recombinant NS4B protein
The experiment can be described thus: ELISA; iELISA; 96-well plates coated with NS4B protein (400 ng/well); incubated with TAT-Nb91 or Nb91; anti-camel serum (1:2,000) and HRP-conjugated secondary antibody; OD 450 nm. Conditions: both partners purified.
On to B1, for which the binding result was “binds”.

The target of the next experiment is T2, BVDV NS4B-His recombinant protein (Bovine viral diarrhea virus 1, GenBank …).
T2 construct: also called recombinant NS4B protein
The experiment in a line: ELISA; iELISA; NS4B-His or the control BVDV-NS5A-His as coating antigen; the nine nanobodies added; anti-E-tag detection. The settings on record: one partner purified.
With B2, the binding result is “binds”. B3: the binding result is recorded as “binds”. In the case of B4, the binding result was “binds”. On the same count and under the same terms, then B5, with “binds”; and B6, with “binds”.
